Assay results taken from article doi:10.1101/2022.07.27.501708 (bioRxiv, 2022).

B1: EH8 IgG (antibody, V domains shown)
VH: QVQLVQSGAEVKKPGASVKVSCKASGYTFSSYGISWVRQAPGQGLEWMGWISPYNGNTKYPQKFQGRVTMTTDTSTNTAYMELRSLRSDDTAVYYCARDLELGGGFDYWGQGTLVTVSS
VL: QSALTQPASVSGSPGQSITISCTGTSSDVGSYNLVSWYQQHPDKAPKFMIYEGTKRPSGVSNRFSGSKSGNTASLTISGLQAEDEADYYCCSYAGNSTWVFGGGTKLTVL
B2: EH3 IgG (antibody, V domains shown)
VH: EVQLVESGGGLVQPGGSLRLSCAASGITVSSNYMTWVRQAPGKGLEWVSVIYSGGSTFYADSVRGRFTISRDNSKNTLYLQMNSLRAEDTAVYYCARDLEMAGAFDIWGQGTMVTVSS
VL: not shown

Molecular target: SARS-CoV-2 WT RBD (SPR analyte) (SARS-CoV-2, Wuhan-Hu-1, UniProt P0DTC2)
Test: SPR

Row | Binder | Kd [nM] | kon [M⁻¹ s⁻¹]
1 | B1 | 1.3 to 7.22 | 403000 to 837000
2 | B2 | 0.83 to 2.79 | 83200 to 274000
